Reference: paper PMC8943916

Target: TIM (the TIM-EGFP-LacI bait of the FRAP experiment, not named)
Assay: FRAP

- FRAP half-life: 11.7 s
Substance: TagRFP-IWS1-TND (from UniProt Q96ST2 614-692) (domain or fragment)
